Read-outs that look alike come from different tables or passages of the source.
Tests used:
[1] = biological target: the molecule itself; assay: SEC-MALS
[2] = biological target: T1, SP_0782 (Streptococcus pneumoniae, UniProt A0A0H2UPA7 7-79); assay: ITC
[3] = biological target: T1, SP_0782; assay: ITC; remark: listed apart in the source
[4] = biological target: T1, SP_0782; assay: X-ray crystallography

B1: SP_0782 (7–79) W30A mutant (domain or fragment, Streptococcus pneumoniae, UniProt A0A0H2UPA7 7-79, looked up)
chain: KKMAEFTFEIEEHLLTLSENEKGATKEINRVSFNGAPAKFDIRAWSPDHTKMGKGITLSNEEFQTMVDAFKGN
stoichiometry N [1]: 2

B2: SP_0782 (7–79) wild-type from Streptococcus pneumoniae (domain or fragment, UniProt A0A0H2UPA7 7-79, looked up)
chain: KKMAEFTFEIEEHLLTLSENEKGWTKEINRVSFNGAPAKFDIRAWSPDHTKMGKGITLSNEEFQTMVDAFKGN
stoichiometry N [1]: 2

TTTTTT (ssDNA) [dT6]
Kd [2]: 26.8 µM

TTTTTTTTTTTT (ssDNA) [dT12]
Kd [3]: 0.0206 µM

TCTTCC (ssDNA) [dTCTTCC]
binding result [4]: binds

From article PMC7145681 (Nucleic Acids Research, 2019)
